These results are taken from US20040122214A1 (TRIMERIS, published 2004).

No end group written: not given here.

The target in assay [1] is gp41 of HIV-1 strain sensitive to SEQ ID NO:114 peptide (HIV-1). The experiment in a line: cell-based or functional assay.
Assay [2] has as its target gp41 of HIV-1 strain resistant to SEQ ID NO:114 peptide (HIV-1). The assay can be described thus: cell-based or functional assay.

Regarding LTWQEWDREINNYTSLIYSLIEESQNQQEENEQELL [peptide comprising SEQ ID NO:114, synthetic peptide alone], in assay [1], the “IC50, in vitro infectivity assay” value is 0.005 mg/L and the “IC90, in vitro infectivity assay” value worked out at 0.034 mg/L. Also, in assay [2], the “IC50, in vitro infectivity assay” value is 2.4 mg/L and the “IC90, in vitro infectivity assay” value is more than 20 mg/L.

B1: conjugate comprising two molecules of SEQ ID NO:114 operably bound to PEG 6 (other)
peptide: {PEG‑6 diacid}-LTWQEWDREINNYTSLIYSLIEESQNQQEENEQELL
modifications: not fully specified; also: dimer: two peptides bound to PEG-6 diacid via N-termini
For B1, in assay [1], the “IC50, in vitro infectivity assay” value was 0.016 mg/L and the “IC90, in vitro infectivity assay” value was 0.169 mg/L. The “IC50, in vitro infectivity assay” value in assay [2] worked out at 0.15 mg/L.
